B1: TF-mAb-H42 (antibody, V domains shown)
VH: QVQLVQSGAEVKKPGASVKVSCKASGYSFISYWMNWVRQAPGQGLEWIGMIYPADSETRLNQKFKDRATLTVDKSTSTAYMELSSLRSEDTAVYYCAREDYGSSDYWGQGTTVTVSS
VL: DIQLTQSPSSLSASVGDRVTITCSASSSVSYMNWYQQKPGKSPKIWIYGISNLASGVPSRFSGSGSGTDFTLTISSLQPEDFATYYCQQKSSFPWTFGGGTKVEIK
notes: Humanized
B2: TF-mAb-H43 (antibody, V domains shown)
VH: QVQLVQSGSELKKPGASVKVSCKASGYSFISYWMNWVRQAPGQGLEWIGMIYPADSETRLNQKFKDRAVLSVDKSVSTAYLQICSLKAEDTAVYYCAREDYGSSDYWGQGTTVTVSS
VL: DIQLTQSPSSLSASVGDRVTITCSASSSVSYMNWYQQKPGKSPKIWIYGISNLASGVPSRFSGSGSGTDFTLTISSLQPEDFATYYCQQKSSFPWTFGGGTKVEIK
notes: Humanized
B3: TF-mAb-H30 (antibody, V domains shown)
VH: EVQLVQSGAEVKKPGESLKISCKGSGYSFTSYWMNWVRQMPGKGLEWMGMIYPADSETRLNQKFKDKATLSVDKSISTAYLQWSSLKASDTAMYYCAREDYGSSDYWGQGTTVTVSS
VL: EIVLTQSPATLSLSPGERATLSCSASSSVSYMNWYQQKPGQAPRIWIYGISNLASGIPARFSGSGSGTDFTLTISSLEPEDFAVYYCQQKSSFPWTFGGGTKVEIK
notes: Humanized
B4: TF-mAb-H45 (antibody, V domains shown)
VH: EVQLVQSGAEVKKPGESLKISCKGSGYSFTSYWMNWVRQMPGKGLEWMGMIYPADSETRLNQKFKDKATLSVDKSISTAYLQWSSLKASDTAMYYCAREDYGSSDYWGQGTTVTVSS
VL: EIVLTQSPDFQSVTPKEKVTITCSASSSVSYMNWYQQKPDQSPKIWIYGISNLASGVPSRFSGSGSGTDFTLTINSLEAEDAATYYCQQKSSFPWTFGGGTKVEIK
notes: Humanized
B5: TF-mAb-H32 (antibody, V domains shown)
VH: QVQLVQSGAEVKKPGASVKVSCKASGYSFISYWMNWVRQAPGQGLEWIGMIYPADSETRLNQKFKDRATLTVDKSTSTAYMELSSLRSEDTAVYYCAREDYGSSDYWGQGTTVTVSS
VL: EIVLTQSPATLSLSPGERATLSCSASSSVSYMNWYQQKPGQAPRIWIYGISNLASGIPARFSGSGSGTDFTLTISSLEPEDFAVYYCQQKSSFPWTFGGGTKVEIK
notes: Humanized
B6: TF-mAb-H38 (antibody, V domains shown)
VH: QVQLVQSGSELKKPGASVKVSCKASGYSFISYWMNWVRQAPGQGLEWIGMIYPADSETRLNQKFKDRAVLSVDKSVSTAYLQICSLKAEDTAVYYCAREDYGSSDYWGQGTTVTVSS
VL: EIVLTQSPATLSLSPGERATLSCSASSSVSYMNWYQQKPGQSPRIWIYGISNLASGVPARFSGSGSGTDFTLTISSLEPEDFAVYYCQQKSSFPWTFGGGTKVEIK
notes: Humanized
B7: TF-mAb-H40 (antibody, V domains shown)
VH: EVQLVQSGAEVKKPGESLKISCKGSGYSFTSYWMNWVRQMPGKGLEWMGMIYPADSETRLNQKFKDKATLSVDKSISTAYLQWSSLKASDTAMYYCAREDYGSSDYWGQGTTVTVSS
VL: DIQLTQSPSSLSASVGDRVTITCSASSSVSYMNWYQQKPGKSPKIWIYGISNLASGVPSRFSGSGSGTDFTLTISSLQPEDFATYYCQQKSSFPWTFGGGTKVEIK
notes: Humanized
B8: TF-mAb-H35 (antibody, V domains shown)
VH: EVQLVQSGAEVKKPGESLKISCKGSGYSFTSYWMNWVRQMPGKGLEWMGMIYPADSETRLNQKFKDKATLSVDKSISTAYLQWSSLKASDTAMYYCAREDYGSSDYWGQGTTVTVSS
VL: EIVLTQSPATLSLSPGERATLSCSASSSVSYMNWYQQKPGQSPRIWIYGISNLASGVPARFSGSGSGTDFTLTISSLEPEDFAVYYCQQKSSFPWTFGGGTKVEIK
notes: Humanized
B9: TF-mAb-H36 (antibody, V domains shown)
VH: EVQLVQSGAEVKKPGESLKISCKGSGYSFTSYWMNWVKQMPGKGLEWMGMIYPADSETRLNQKFKDKATLSVDKSISTAYLQWSSLKASDTAMYYCAREDYGSSDYWGQGTTVTVSS
VL: EIVLTQSPATLSLSPGERATLSCSASSSVSYMNWYQQKPGQSPRIWIYGISNLASGVPARFSGSGSGTDFTLTISSLEPEDFAVYYCQQKSSFPWTFGGGTKVEIK
notes: Humanized
B10: TF-mAb-H31 (antibody, V domains shown)
VH: EVQLVQSGAEVKKPGESLKISCKGSGYSFTSYWMNWVKQMPGKGLEWMGMIYPADSETRLNQKFKDKATLSVDKSISTAYLQWSSLKASDTAMYYCAREDYGSSDYWGQGTTVTVSS
VL: EIVLTQSPATLSLSPGERATLSCSASSSVSYMNWYQQKPGQAPRIWIYGISNLASGIPARFSGSGSGTDFTLTISSLEPEDFAVYYCQQKSSFPWTFGGGTKVEIK
notes: Humanized
B11: TF-mAb-H44 (antibody, V domains shown)
VH: EVQLVQSGAEVKKPGESLKISCKGSGYSFTSYWMNWVRQMPGKGLEWMGMIYPADSETRLNQKFKDQATLSVDKSISTAYLQWSSLKASDTAMYYCAREDYGSSDYWGQGTTVTVSS
VL: EIVLTQSPDFQSVTPKEKVTITCSASSSVSYMNWYQQKPDQSPKIWIYGISNLASGVPSRFSGSGSGTDFTLTINSLEAEDAATYYCQQKSSFPWTFGGGTKVEIK
notes: Humanized; also called humanized antibody TF-mAb-H44
B12: TF-mAb-H34 (antibody, V domains shown)
VH: EVQLVQSGAEVKKPGESLKISCKGSGYSFTSYWMNWVRQMPGKGLEWMGMIYPADSETRLNQKFKDQATLSVDKSISTAYLQWSSLKASDTAMYYCAREDYGSSDYWGQGTTVTVSS
VL: EIVLTQSPATLSLSPGERATLSCSASSSVSYMNWYQQKPGQSPRIWIYGISNLASGVPARFSGSGSGTDFTLTISSLEPEDFAVYYCQQKSSFPWTFGGGTKVEIK
notes: Humanized
B13: TF-mAb-H37 (antibody, V domains shown)
VH: QVQLVQSGAEVKKPGASVKVSCKASGYSFISYWMNWVRQAPGQGLEWIGMIYPADSETRLNQKFKDRATLTVDKSTSTAYMELSSLRSEDTAVYYCAREDYGSSDYWGQGTTVTVSS
VL: EIVLTQSPATLSLSPGERATLSCSASSSVSYMNWYQQKPGQSPRIWIYGISNLASGVPARFSGSGSGTDFTLTISSLEPEDFAVYYCQQKSSFPWTFGGGTKVEIK
notes: Humanized
B14: TF-mAb-H39 (antibody, V domains shown)
VH: EVQLVQSGAEVKKPGESLKISCKGSGYSFTSYWMNWVRQMPGKGLEWMGMIYPADSETRLNQKFKDQATLSVDKSISTAYLQWSSLKASDTAMYYCAREDYGSSDYWGQGTTVTVSS
VL: DIQLTQSPSSLSASVGDRVTITCSASSSVSYMNWYQQKPGKSPKIWIYGISNLASGVPSRFSGSGSGTDFTLTISSLQPEDFATYYCQQKSSFPWTFGGGTKVEIK
notes: Humanized; also called humanized antibody TF-mAb-H39
B15: TF-mAb-H33 (antibody, V domains shown)
VH: QVQLVQSGSELKKPGASVKVSCKASGYSFISYWMNWVRQAPGQGLEWIGMIYPADSETRLNQKFKDRAVLSVDKSVSTAYLQICSLKAEDTAVYYCAREDYGSSDYWGQGTTVTVSS
VL: EIVLTQSPATLSLSPGERATLSCSASSSVSYMNWYQQKPGQAPRIWIYGISNLASGIPARFSGSGSGTDFTLTISSLEPEDFAVYYCQQKSSFPWTFGGGTKVEIK
notes: Humanized
B16: TF-mAb-H29 (antibody, V domains shown)
VH: EVQLVQSGAEVKKPGESLKISCKGSGYSFTSYWMNWVRQMPGKGLEWMGMIYPADSETRLNQKFKDQATLSVDKSISTAYLQWSSLKASDTAMYYCAREDYGSSDYWGQGTTVTVSS
VL: EIVLTQSPATLSLSPGERATLSCSASSSVSYMNWYQQKPGQAPRIWIYGISNLASGIPARFSGSGSGTDFTLTISSLEPEDFAVYYCQQKSSFPWTFGGGTKVEIK
notes: Humanized
B17: TF-mAb-H41 (antibody, V domains shown)
VH: EVQLVQSGAEVKKPGESLKISCKGSGYSFTSYWMNWVKQMPGKGLEWMGMIYPADSETRLNQKFKDKATLSVDKSISTAYLQWSSLKASDTAMYYCAREDYGSSDYWGQGTTVTVSS
VL: DIQLTQSPSSLSASVGDRVTITCSASSSVSYMNWYQQKPGKSPKIWIYGISNLASGVPSRFSGSGSGTDFTLTISSLQPEDFATYYCQQKSSFPWTFGGGTKVEIK
notes: Humanized

Legend:
[1] = target: T1, extracellular domain of human TF protein (human, UniProt P13726 34-251); assay: ELISA, coated TF extracellular domain
T1 construct: range 34-251; Limits 34-251 are stated for the immunogen; also called the extracellular domain protein of TF; TF antigen
Protocol: The antigen (the extracellular domain protein of TF) was diluted to 0.5 μg/mL with a coating solution, and was used to coat an ELISA plate overnight, at 100 μL/well and 4° C. The excessive antigen was removed by washing. The plate was blocked with 2% BSA at room temperature for 2 h, and then each of the 3-fold serial diluted monoclonal antibodies was added at 100 μL/well, and was incubated for 2 h at room temperature. The unbound antibodies were removed by washing, and an appropriate concentration of horseradish peroxidase-labeled anti-mouse secondary antibody was added at 100 μL/well, and incubated for 1 h at room temperature. The unbound secondary antibody was removed by washing, TMB chromogenic solution was added, and the color was developed to an appropriate color depth. 2M H₂SO₄ was added at 50 μL/well, to stop the chromogenic reaction, the absorbance at 450 nm was then determined, and the data was analyzed.
Firstly, the 20 humanized antibodies were determined for their affinity for the extracellular domain protein of TF by ELISA binding assay (The experimental method refers to Step \textcircled{4} of Example 1).

[2] = target: T2, human TF on the cell surface of tumor cells (human, UniProt P13726 33-295); assay: flow cytometry on MDA-MB-231 cells, antibody at 10 µg/mL; design: reference not given here
T2 construct: whole, on cells; Endogenous TF on TF-positive human tumor cell lines; also called cell surface TF
Protocol: (§1) The cells were washed with PBS twice to remove the unbound primary antibody, and the target cells were incubated with 200 μL PE-labeled secondary antibody (2 μg/mL) at 4° C. for 30 min. The cells were washed with PBS twice to remove the unbound secondary antibody, and finally the cells were re-suspended in 400 μL PBS.

[3] = target: T2, human TF on the cell surface of tumor …; assay: flow cytometry on MDA-MB-231 cells, antibody at 1 µg/mL
Protocol: as §1

| EC50 [1] [nM] | MFI [2] | MFI [3] | Binder |
| --- | --- | --- | --- |
| 0.0128 | 3350 | 2970 | B1 |
| 0.0116 | 3300 | 2820 | B2 |
| 0.0147 | 3240 | 2930 | B3 |
| 0.0138 | 3480 | 3100 | B4 |
| 0.0168 | 3010 | 2400 | B5 |
| 0.0178 | 3150 | 2870 | B6 |
| 0.0131 | 3310 | 3180 | B7 |
| 0.0105 | 3020 | 2930 | B8 |
| 0.0234 | 3090 | 3040 | B9 |
| 0.0145 | 3470 | 3080 | B10 |
| 0.012 | 3430 | 3200 | B11 |
| 0.0154 | 3270 | 2460 | B12 |
| 0.0173 | 2990 | 2460 | B13 |
| 0.0125 | 3380 | 3180 | B14 |
| 0.0189 | 2840 | 2420 | B15 |
| 0.0178 | 3580 | 2960 | B16 |
| 0.0134 | 3610 | 3000 | B17 |
